According to patent publication US12281155 (INSTITUT PASTEUR, dated 2025):
Substitutions are numbered along the chain they refer to.

B1: SPK002M A3 antibody (antibody, human IgG1, kappa, V domains shown)
VH: EVQLVESGGGLIQPGGSLRLSCAASTITVTSNYMSWVRQAPGKGLEWVSVIYPGGSTFYADSVKGRFTISADNSKNTLYLQMNSLRAEDTAVYYCARDLVVYGMDVWGQGTTVTVSS
VL: EIVLTQSPGTLSLSPGERATLSCRASQSVSSSYLAWYQQKPGQAPRLLIYGASSRATGIPGRFSGSGSGTDFTLTISRLEPEDFAVYYCQQGVTFGGGTKVEIKR
B2: SPK002M C3 antibody (antibody, human IgG1, kappa, V domains shown)
VH: B1 VH with T26I, A71T
VL: B1 VL
B3: SPK002M C2 antibody (antibody, human IgG1, kappa, V domains shown)
VH: B1 VH with T26I, I51A, A71T
VL: B1 VL
B4: SPK002M C1 antibody (antibody, human IgG1, kappa, V domains shown)
VH: B1 VH with T26I, I51A, A71T
VL: B1 VL with S31D, Q91Y
B5: SPK002M A1 antibody (antibody, human IgG1, kappa, V domains shown)
VH: B1 VH
VL: B1 VL with S28G, V29F
B6: SPK002M A6 antibody (antibody, human IgG1, kappa, V domains shown)
VH: B1 VH with T26G
VL: B1 VL with V86I
B7: SPK002M A5 antibody (antibody, human IgG1, kappa, V domains shown)
VH: B1 VH with T26V
VL: B1 VL with V86I
B8: SPK002M B2 antibody (antibody, human IgG1, kappa, V domains shown)
VH: B1 VH with T26I, A71Y
VL: B1 VL with V86I
B9: SPK002M B1 antibody (antibody, human IgG1, kappa, V domains shown)
VH: B1 VH with T26I, A71Y
VL: B1 VL with S31D, V86I, Q91Y
B10: SPK002M A4 antibody (antibody, human IgG1, kappa, V domains shown)
VH: B1 VH with T26V
VL: B1 VL
B11: SPK002M A2 antibody (antibody, human IgG1, kappa, V domains shown)
VH: B1 VH
VL: B1 VL with S28G

Molecular target: T1, YU2 HIV-1 Env gp140 protein (HIV-1 YU2, UniProt P35961 32-670)
T1 construct: domain: gp140; also called gp140 (HIV-1 YU2); HIV gp140
Test: polyreactivity ELISA (FIG. 1)

Binder	binding result
B1	no binding (tested: 4 µg/ml)
B2	no binding (tested: 4 µg/ml)
B3	no binding (tested: 4 µg/ml)
B4	no binding (tested: 4 µg/ml)
B5	no binding (tested: 4 µg/ml)
B6	no binding (tested: 4 µg/ml)
B7	no binding (tested: 4 µg/ml)
B8	no binding (tested: 4 µg/ml)
B9	no binding (tested: 4 µg/ml)
B10	no binding (tested: 4 µg/ml)
B11	no binding (tested: 4 µg/ml)

Molecular target: T2, recombinant SARS-CoV-2 Spike RBD domain, Wuhan (SARS-CoV-2)
T2 construct: also called RBD Wuhan
Test: ELISA on coated RBD

Binder	Binding AUC
B1	33
B2	34
B3	32
B4	32
B5	33
B7	34
B8	31
B9	31
B10	34
B11	33

Molecular target: T2, recombinant SARS-CoV-2 Spike RBD …
Test: competition ELISA, blocking of RBD binding to ACE2 ectodomain

Binder	Blocking % [%]
B1	94
B2	88
B3	88
B4	94
B5	92
B7	89
B8	90
B9	87
B10	88
B11	92
